Where a chain is given by its changes, count along the chain named. Each block holds one binder with its values, some of them ahead of it. Primed or numbered codes have the meaning given here. The star is where a group is joined. dPEG8″ = dPEG8: discrete polyethylene glycol-8 linker (between N-terminal biotin and the peptide); dPEG8 = discrete polyethylene glycol-8 linker (long chain); Biotin = O=C1N[C@H]2[C@H](CS[C@H]2CCCCC(=O)*)N1
Columns and labels:
[1] = target: T1, Recombinant soluble human CD138 extracellular domain (analyte in SPR) (human, UniProt P18827 23-254); experiment: SPR (Carterra LSA): antibody captured by anti-human IgG, CD138 as analyte, pH 7.4, 1:1 fit
T1 construct: extracellular domain; also called recombinant CD138 (the antigen)
T1 sequence (looked up): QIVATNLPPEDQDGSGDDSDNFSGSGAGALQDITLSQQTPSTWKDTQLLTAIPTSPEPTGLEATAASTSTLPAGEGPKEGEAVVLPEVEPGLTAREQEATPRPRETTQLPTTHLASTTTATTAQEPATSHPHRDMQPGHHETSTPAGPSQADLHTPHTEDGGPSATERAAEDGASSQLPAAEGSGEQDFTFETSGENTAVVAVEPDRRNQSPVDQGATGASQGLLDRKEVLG
Source text: (§1) This method as described, immobilizes the target (recombinant CD138) through biotinylation-streptavidin capture. Such a method may, in principle, lead to biases in binding due to either chemical modification of the capture ligand and/or avidity effects due to immobilization of this ligand on the biosensor. Moreover, this method depends on diffusion-based principles of dissociation leading to non-equilibrium binding states. Surface plasmon resonance is an orthogonal, commonly used method for determining binding kinetics and deriving affinity values based on these parameters. In this method, antibodies were directly coupled to the sensor chip and probed with several concentrations of recombinant CD138 (the antigen) varying from 100 nM to 41 nM. This evaluation was completed under two different pH conditions, i.e., pH 6.0 and pH […].
(§2) Antibody-CD138 binding was evaluated on a Carterra LSA high throughput SPR instrument. Binding experiments were carried out using binding buffer comprising 100 mM sodium phosphate, 150 mM NaCl and 0.05% Tween-20 buffer. Buffers were adjusted to target pH of 7.4 and 6.0, by use of sodium hydroxide or HCL, respectively. All steps were also carried out independently at these respective buffer pHs. Antibodies were captured on the SPR (CMDP) chip using an anti-human IgG covalently coupled to the CMDP chip based on standard protocols, as described by the instrument manufacturer, and to create a uniform lawn on the chip surface at a target 25 nM anti-CD138 antibody concentration. Binding to CD138 was achieved by uniformly passing binding analyte with increasing concentrations of CD138 (41 nM-100 nM) for 15 minutes and allowing dissociation for 20 minutes. Analyte was flowed over the chip at a rate of 2 milliliters/minute. Raw binding data were processed using kinetics data analysis software also provided by the manufacturer (Carterra) following as 2X background subtraction that used the first six injections of buffer blanks and the internal machine reference controls. Kinetic data was analysed using a global fit and assuming a 1:1 binding interaction. Further analysis of individual binding curves (sensorgrams) with best fits were used to refine the calculation of kinetic parameters.

Peptide 2D = target: T2, Peptide 2D (human); experiment: BLI (Octet): biotinylated peptide (50 nM) on streptavidin sensors, mAb 4320 in solution, PBS pH 7.4; qualitative score
T2 construct: Chemically synthesized human CD138 peptide, 15 residues
T2 peptide: {Biotin-dPEG8″}-GEAVVLPEVEPGLTA-OH

Peptide 138-2-1 = target: T3, Peptide 138-2-1 (human); experiment: BLI (Octet): biotinylated peptide (50 nM) loaded on streptavidin SA biosensors, mAb 4320 in solution, PBS pH 7.4 with 0.02% Tween-20
T3 construct: Chemically synthesized human CD138 peptide, 8 residues
T3 peptide: {Biotin-dPEG8}-VLPEVEPG-OH

Peptide 138-2-2 = target: T4, Peptide 138-2-2 (human); experiment: as above
T4 construct: Chemically synthesized human CD138 peptide, 7 residues
T4 peptide: {Biotin-dPEG8}-LPEVEPG-OH

Peptide 138-2-3 = target: T5, Peptide 138-2-3 (human); experiment: as above
T5 construct: Chemically synthesized human CD138 peptide, 8 residues
T5 peptide: {Biotin-dPEG8}-PEVEPGLT-OH

Peptide 6B = target: T6, Peptide 6B (human, N-terminal biotin through a long chain (dPEG8) linker (Biot-LC-); C-terminal -OH); experiment: BLI (Octet): biotinylated peptide (50 nM) loaded on streptavidin SA biosensors, mAb 4320 in solution, 300 s association then dissociation, PBS pH 7.4 with 0.02% Tween-20
T6 construct: Chemically synthesized human CD138 peptide, 33 residues
T6 peptide: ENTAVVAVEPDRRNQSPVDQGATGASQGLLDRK

Peptide 6F = target: T7, Peptide 6F (human); experiment: as above
T7 construct: Chemically synthesized human CD138 peptide, 15 residues
T7 peptide: {Biotin-dPEG8″}-ENTAVVAVEPDRRNQ-OH

Peptide 138-6-1 = target: T8, Peptide 138-6-1 (human); experiment: as above
T8 construct: Chemically synthesized human CD138 peptide, 8 residues
T8 peptide: {Biotin-dPEG8}-VVAVEPDR-OH

Peptide 2A = target: T9, Peptide 2A (human, N-terminal biotin through a long chain (dPEG8) linker (Biot-LC-); C-terminal -OH); experiment: as above
T9 construct: Chemically synthesized human CD138 peptide, 34 residues; also called Pep2a
T9 peptide: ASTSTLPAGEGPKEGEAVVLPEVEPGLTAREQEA

Peptide 2C = target: T10, Peptide 2C (human, N-terminal biotin through a long chain (dPEG8) linker (Biot-LC-); C-terminal -OH); experiment: as above
T10 construct: Chemically synthesized human CD138 peptide, 20 residues
T10 peptide: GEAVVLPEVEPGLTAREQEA

Peptide 6 = target: T11, Peptide 6 (human, N-terminal biotin through a long chain (dPEG8) linker (Biot-LC-); C-terminal -OH); experiment: as above
T11 construct: Chemically synthesized human CD138 peptide, 41 residues; also called Pep6
T11 peptide: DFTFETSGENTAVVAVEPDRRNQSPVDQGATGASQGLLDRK

[2] = target: T12, CD138 on the surface of U266 cells (CD138+ human lymphoblastic myeloma cell line) (human, UniProt P18827 23-310); experiment: flow cytometry on U266 cells at pH 6, MFI against antibody concentration (about 0.03-30 ug/mL)
T12 construct: whole, on cells; also called cell surface CD138; membrane CD138
T12 sequence (looked up): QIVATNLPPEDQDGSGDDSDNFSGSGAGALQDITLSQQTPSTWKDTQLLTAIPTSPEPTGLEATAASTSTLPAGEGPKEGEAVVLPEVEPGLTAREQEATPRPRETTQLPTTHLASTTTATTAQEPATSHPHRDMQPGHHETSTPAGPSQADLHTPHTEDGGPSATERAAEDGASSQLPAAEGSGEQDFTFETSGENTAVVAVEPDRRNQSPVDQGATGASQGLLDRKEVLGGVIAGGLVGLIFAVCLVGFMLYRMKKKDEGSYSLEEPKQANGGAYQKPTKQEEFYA
Method: (§3) Antibody binding to membrane CD138 was evaluated using the CD138+ human lymphoblastic myeloma cell line (U266) and quantified by flow cytometry. Cells were grown in RPMI1640 with 10% FBS. […] Cells were washed (1X) with same pH-matched buffer (and as throughout the experiment) followed by incubation with secondary (detection) goat anti-human Fab( Jackson Immuno Research) conjugated with Alexa Fluor-488 for 30 minutes also at either pH 6.0 or 7.4. Cells were washed once more and resuspended in matching pH buffer and evaluated by flow cytometry. Antibody cell binding was reported as geometric mean fluorescence intensity (MFI). Dose-response curves were generated using GraphPad Prism. Binding data were plotted using nonlinear regression analysis and a 4-parameter curve fit.
(§4) Binding was evaluated as described.

[3] = target: T12, CD138 on the surface of U266 cells …; experiment: flow cytometry on U266 cells at pH 6.0, MFI against antibody concentration (0.04-10 ug/mL shown)
Method: as §3

[4] = target: T1, Recombinant soluble human CD138 …; experiment: SPR (Carterra LSA): antibody captured by anti-human IgG, CD138 as analyte, pH 6.0, 1:1 fit; pH 6.0, SPR
Source text: as §1, §2

[5] = target: T12, CD138 on the surface of U266 cells …; experiment: flow cytometry on U266 cells at pH 6.5, MFI against antibody concentration (about 0.03-30 ug/mL)
[6] = target: T12, CD138 on the surface of U266 cells …; experiment: flow cytometry on U266 cells at pH 6.0, MFI against antibody concentration (0.01-10 ug/mL)
Method: as §3

[7] = target: T12, CD138 on the surface of U266 cells …; experiment: flow cytometry on U266 cells at pH 7, MFI against antibody concentration (about 0.03-30 ug/mL)
Method: as §3, §4

[8] = target: T13, Biotinylated recombinant soluble human CD138 extracellular domain (Sino Biological, Cat. 11429-H08H) (human, UniProt P18827 18-251, biotin (EZ-Link NHS-SS-PEG4 Biotin) on primary amino groups of lysines, protein:biotin 1:20); experiment: BLI (Octet): biotinylated CD138 (10 nM) on streptavidin tips, antibody 12.5 and 25 nM, pH 6.0, 1:1 fit
T13 construct: range 18-251; Bought reagent; The limits are printed as approximate; also called biotinylated CD138; recombinant CD138
T13 sequence (looked up): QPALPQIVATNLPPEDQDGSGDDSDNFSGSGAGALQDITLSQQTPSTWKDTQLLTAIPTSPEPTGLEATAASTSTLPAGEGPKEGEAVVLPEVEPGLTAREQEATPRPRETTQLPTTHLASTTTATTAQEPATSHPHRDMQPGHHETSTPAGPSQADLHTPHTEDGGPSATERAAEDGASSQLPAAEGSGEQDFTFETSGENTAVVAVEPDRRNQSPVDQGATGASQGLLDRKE
Method: Binding experiments were carried using assay buffer comprised of 100 mM Sodium Phosphate+ 150 mM NaCl + 0.02% Tween-20 and adjusted to target pH of 7.4, 6.0, 6.4, or 6 using appropriate ratios of monobasic and dibasic sodium phosphate buffer. 25 nM biotinylated CD138 was loaded onto Streptavidin capture Octet (SA) tips for 120 seconds (antigen loading step) followed by antibody binding for associated for 300 seconds (association step), and subsequently dissociation for 300 seconds (dissociation step). All steps were carried out at the respective target pH using the corresponding pH adjusted buffers.
Modifications to this protocol included lowering the loading concentration of biotinylated CD138 from 25 nM to 10 nM and varying the test antibody concentrations ranging from 25 nM down to 0.8 nM (as 2-fold dilutions). The rationale for doing so was to potentially reduce any target avidity effects while also looking at the analyte concentration dependency.
Data were analyzed for purposes of calculating approximate kinetic binding parameters and apparent binding affinities based on these rates. Data was fit assuming a 1:1 binding model.

[9] = target: T12, CD138 on the surface of U266 cells …; experiment: flow cytometry on U266 cells at pH 7.4, MFI against antibody concentration (about 0.03-30 ug/mL)
Method: as §3, §4

Kd [1]: 0.2 nM
koff [1]: 8.5e-05 s⁻¹
kon [1]: 370000 M⁻¹ s⁻¹
binding result (Peptide 2D): binds
binding result (Peptide 138-2-1): no binding
binding result (Peptide 138-2-2): no binding
binding result (Peptide 138-2-3): no binding
binding result (Peptide 6B): binds
binding result (Peptide 6F): binds
binding result (Peptide 138-6-1): binds
binding result (Peptide 2A): binds
binding result (Peptide 2C): binds
binding result (Peptide 6): binds
B1: mAb 4320 (parental humanized anti-CD138 antibody) (antibody, human IgG1, kappa, V domains shown)
VH: QVQLVQSGAEVKKPGASVKVSCKASGYSFSSYYMHWVRQAPGQGLEWMGTIHPSDSTTNYNQKFQGRVTMTVDTSTRTAYMELSSLRSEDTAVYYCANFVYWGQGTTVTVSS
VL: DIVMTQTPLSLSVTPGQPASISCKSSKSLLYKDGKTYLNWFLQKPGQSPQLLIYVVSTRASGVPDRFSGSGSGTDFTLKISRVEAEDVGVYYCQQLVEYPYTFGQGTKLEIKR
notes: Full-length IgG; heavy constant region human gamma 1 (m3 allotype), light chain kappa constant*01

EC50 (read off the curve) [2]: ~0.6 µg/mL
EC50 (read off the curve) [3]: ~0.6 µg/mL
Kd [4]: 28 nM
koff [4]: 0.0042 s⁻¹
kon [4]: 150000 M⁻¹ s⁻¹
EC50 (read off the curve) [5]: ~0.9 µg/mL
B2: Antibody 29-0 (antibody, V domains shown)
VH: B1 VH with Q1E, H52Y, S54G, D55A, N98D
VL: DIVMTQTPLSLSVTPGQPASISCKSSKSLLYKDGKTYLNWFLQKPGQSPQLLIYVVSTRASGVPDRFSGSGSGTDFTLKISRVEAEDVGVYYCQQLVEYPYTFGQGTKLEIK
notes: also called mAb 29-0

EC50 (read off the curve) [6]: ~0.5 µg/mL
EC50 (read off the curve) [2]: ~0.6 µg/mL
EC50 (read off the curve) [7]: ~0.9 µg/mL
Kd [8]: 6.5 nM
koff [8]: 0.0041 s⁻¹
kon [8]: 630000 M⁻¹ s⁻¹
EC50 (read off the curve) [5]: ~0.7 µg/mL
EC50 (read off the curve) [9]: ~1 µg/mL
B3: Antibody Ab43 (antibody, V domains shown)
VH: B1 VH with Q1E, N98D
VL: B2 VL with N39L

Reference: patent publication US20230348614A1 (VISTERRA, published 2023)
